The RNAGym collection of RNA variant scans (doi:10.1073/pnas.2313332121)
Fewer inactive variants are shown than the library holds.

B1: TPR 5TU (parent)
chain: GGAUCUUCUCGAUCUAACAAAAAAGACAAAUCUGCCACAAAGCUUGAGAGCAUCUUCGGAUGCAGAGGCGGCAGCCUUCGGUGGCGCGAUAGCGCCAACGUUCUCAACUAUGACACGCAAAACGCGUGCUCCGUUGAAUGGAGUUUAUCAUG

Variants of: B1
Test: polymerase ribozyme fitness, log enrichment relative to wild type (log ratio); higher = more active; in vitro selection for triplet polymerase activity
Summary of the method: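 Streptavidin-bead capture of gel-excised extended constructs, followed by RT-PCR, closed a single triplicate in vitro selection round. That round began by annealing PCR-built, transcribed mutant libraries of each subunit of a heterodimeric triplet polymerase ribozyme with a biotinylated primer, the partner subunit and triplets, then incubating them frozen at −7 °C. After Illumina sequencing of inputs and outputs, genotypes needed ≥10 input reads and ≥1 read per output. Fitness is the base-2 logarithm of genotype enrichment over wild-type enrichment, using inverse-variance-weighted replicate averages.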

First: GGAUCUUCUCGAUCCAACAAAAAAGACAAAUCUGCCACAAAGCUUGAGAGCAUCUUCGGAUGCAGAGGCGGCAGCCUUCGGUGGCGCGAUAGCGCCAACGUUCUCAACUAUGACACGCAAAUCGCGUGCUCCGUUGAAUGGAGUUUAUCAUG
Second: GGAUCUUCUCGAUCCAACAAAAAAGACAAAUCUGCCACAAAGCUUGAGAGCAUCUUCGGAUGCCGAGGCGACAGCCUUCGGUGGCGCGAUAGCGCCAACAUUCUCAACUAUGACACGUAAAACGCGUGCUCCGUUGAAUGGAGUUUAUCAUG
The “polymerase ribozyme fitness (log ratio)” value of the first is higher: 0.45 for the first, no more than -4.2 for the second.

First: GGAUCUUCUCGAUCCAACAAAAAAGACAAAUCUGCCACAAAGCUUGAGAGCAUCUUGGGAUGCAGAGGCGGCAGCCUUCGGGGGCGCGAUAGCACCAACGUUCUCAACUAUGACACGCAAAACGCGUGCUCCGUUGAAUGGAGUUUAUCAUG
Second: GGAUCUUCUCGAUCCAACAAAAAAGACAAAUCUGCCAAAAAGCUUGAGAGCAUCUUCGGAAGCAGAGGCGGCAGCCUUCGGUGGCGUGAUAGCGCCAACGUUCUCAACUAUGACACGCAAAGCGCGUGCUCCGUUGAAUGGAGUUUAUCAUG
The “polymerase ribozyme fitness (log ratio)” value of the first is higher: 0.771 for the first, -2.73 for the second.

Compared with GGAUCUUCUCGAUCCAACAAAAAAGACAAAUCUGCCAUAAAGCUUGAGGGCAUCUUCGGAUGCAGAGGCGGCAGCCUUCGGUGGCGCGAUAGCGCCAACGUUGUCAACUAUGACACGCAAAACGCGUGCUCCGUUGAAUGUAGUUUAUCAUG, GGAUCUUCUCGAUCCAACAAAAAAGACAAAUCUGCCUCAAAGCUUGAGAGCAUCUUCGGAUGCAGAGGCGGCAGCCUUCGGUGGCGCGAUAGCGCCAACGUUCUCAACUAUGACACGUAAAACGCGUGCUCCGUUGAAUGGAGUUUAUCAUG is higher in “polymerase ribozyme fitness (log ratio)” value: no more than -4.2 for the first, -0.404 for the second.

GGAUCUUCUCGAUCCAACAAAAAAGACAAAUCUGGCACUAAGCUUGAGAGCAUCUUCGGAUGCAGAGGCGGCGGCCUUCGGUCGCGCGAUAGCGCCAACAUUCUCAGCUAUGACACGCAAAACGAGUGCUCCGUUGAAUGUAGUUUAUCAUG and GGAUCUUCUCGAUCCAACAAAAAAGACAAAUCUGCAACAAAGCUUGAGAGCAUCUUCGGUUGCAGAGGCGGCAGCCUUCGGUGGGGCGAUAGCGCCAACGUUCUCAACUAUGACAUGCAAAACGCGUGCUCCGUUGAAUGGAGUUUAUCAUG cannot be ordered by “polymerase ribozyme fitness (log ratio)” value: no more than -4.2 for the first, no more than -4.2 for the second.

First: GGAUCUUCUCGAUCCAACAAAAAAGACAAAUCUGCCACAAAGCUUGAGAGAAUCUUCGGAUGCAGAGGCGGCAGCCUUCGGUGGCUCGAUAGCGCCAACGUUCUCAACUAUGACACGCAAAACGCGUGCUCCGUUGAAUGGAGUUUAUCAUG
Second: GGAUCUUCUCGAUCCAACAAAAAAGACAAAUCUGCCACAAAGCUUGAGAGCAUCUUCGGAUGCAGAGGCGGCAGCCUUCGGUGGCGCGAUAGUGCCAACGUUCUCAACUAUGACACGCAAAUCGCGUGCUCCGUUGAAUGGAGUUUAUCAUG
The “polymerase ribozyme fitness (log ratio)” value of the first is lower: -1.6 for the first, -0.873 for the second.

GGAUCUUCUCGAUCCAACAACAAAGACAAAUCUGCCACAAAGCUUGAGAGCAUCUUCGGAACCAGAGGCGGCAGCCUUCGGUGGCGCGAUAGCGACAACGUUCACAACUAUGACACGCAAAACGCGUGCUCCGUUGAUUGGAGUUUAUCAUG and GGAUCUUCUCGAUCCAACAAAGAAGACAAAUCUGCCACAAAACUUGAGAGCAUCUUCGGAUGCAGAGGCGGCAGCCUUCGGUGACGCGAUAGCGCCAACGUUCUCAACUAUGACACGCAAAACGCGUGCUCCUUUGAAUGGAGUUUAUCAUG cannot be ordered by “polymerase ribozyme fitness (log ratio)” value: no more than -4.2 for the first, no more than -4.2 for the second.

Compared with GGAUCUUCUCGAUCCAACAAAAAAGUCAAAUCUGCCACAAAGCUUGAGAGCAUCUUGGUAUGCAGAGGCGGCAGCCUUCGGUGGCGAAAUAGCGCCAACGUUCUCAUCUAUGACACGCAAAACGCGUGCUCCGUUGAAUGGAGUUUAGCAUG, GGAUCUUCUCGAUCCAACAAAAAAGACAAAUCUGCCACAAAGCUUGAGAGCAUCUUCGGAUGCAGAGGCGGCAGCCUUCGGUGGCGCGAUAGGGCCAACGUUCUCAACUAUGACACGCAAAACGCGUGCUCCGUUGAAUGGAGUUUAUCAUG is higher in “polymerase ribozyme fitness (log ratio)” value: no more than -4.2 for the first, -2.27 for the second.

Compared with GGAUCUUCUCGAUCCAACAAAAAAGACAAAUCUGCCACAAAGCUUGCGAGCAUUUUCGGAUGCAGAGGCGGCAGCCUUCGGUGGCGCGUUAGCGGCAACGUUCUCAACUAUGACACGCAAAACGCGUGCUCCGUUGAAUGGAGUUUAUCAUG, GGAUCUUCUCGAUCCAACAACAAAGACAAAUCUGCCACAAAGCUUGACAGCAUCUUCGGAUGCAGAGGCGGCAGCCUUCGGUGGCGCGAUAGUGCCAACGUUCUCAACUAUGACACGCAAAACGCGUGCUCCGUUGAAUGGAGUUGAUCAUG is higher in “polymerase ribozyme fitness (log ratio)” value: -2.01 for the first, -0.835 for the second.

Going from GGAUCUUCUCGAUCCAACAAAAAAGACAAAUCUCCCACAAAGCUUGAGAGCAUCUUAGGAUGCAGAGGCGGCAGCCUUCGGUGUCGCGAUAGCGCCAUCGUUCUCAACUAUGACACGCAAAACGCGUGCUCCGUUGAAUGGAGUUUAUCAUG to GGAUCUUCUCGAUCCAACAAAGAAGACAAAUCUGCCACAAAGCUUGAGAGCAUCUUCGGAUGCAGAGGCGGCAGCCUUCGGUGGCGCGAUAGCGCCAACGUUCUCAACUAUGACACGCAAAACGCGUGCUCCGUUGAAUGGAGUUUAUCAUG, the “polymerase ribozyme fitness (log ratio)” value rises from -2.33 to 1.56.

First: GGAUCUUCUCGAUCCAACAAAAAAGACAAAUCUGCCAUAAAGCUUGAGAGCAUCUUCGGAUGCAGAGGCGGCAGCCUUCGGUGGCUCGAUUGCGCCAACGUUCUCAACUAUGACACGCAAAACGCUUGCUCCGGUGAAUGGGGUUUAUCAUG
Second: GGAUCUUCUCGAUCCAACAAAAAAGACAAAUCUGCCACAAAGCUUGAGAGCAUAUUCGAAUGCAGAGGCGGCAGCCUUCGGUGUCGCGAUAGCGCCAACGUUCUCGACUAUGACACGCAAAACGCGUGCUCCGUUGAAUGGAGUUGAUCAUG
The “polymerase ribozyme fitness (log ratio)” value of the first is lower: no more than -4.2 for the first, -2.98 for the second.

Going from GGAUCUUCUCGAUCCAACAAAACAGACAAGUCUGCCACAAAGCAUGAGAGCAUCUUCGGAUGCAGAGGCAGCAGCCUUCGGUGGCGAGAUAGCGCCAACGUUCUCAACUAUGACACGCAAAACGCGUGCUCCGUUGAAUGCAGUUUAUCAUG to GGAUCUUCUCGAUCCAACAAAAAAGACAAAUCUGCCACAUAGCUUGAGAGCAACUUCGGAUGCAGAGGCGGCAGCCUUCGGUGCCGCGAUAGCGCCAACGUUCUCAACUAUGACACGCAAAACGCGUGCUCCGUUGAAUGGAGUUUAUCAUG, the “polymerase ribozyme fitness (log ratio)” value rises from no more than -4.2 to -1.96.

Compared with GGAUCUUCUCGAUCCAACAAAAAGGACAAAUCUGCCACAAAGCUUGAGAGCAUCUUCGGAUGCAGAGGCGGCAGCUUUCGGUGGCGCGAUAGCGCCAACGUUCUCAACUAUGACACGCAAAACGCGUGCUCCGUUGAAUGGAGUAUAUCAUG, GGAUCUUCUCGAUCCAACAGAAAAGACAAAUCUGCCACAAAGCUUGAGAGCAUCUUCGGAUGCAGAGGCGGCAGCCUUCGGUGGCGCGAUAGCGCCGACGUUCUCAACUAUGACACGCAAAACGCGUGCUCCGUUGAAUAGAGUUUAUCAUG is higher in “polymerase ribozyme fitness (log ratio)” value: no more than -4.2 for the first, -3.64 for the second.

GGAUCUUCUCGAUCCAACAAAAAAGACAAAUCUGCCACAAAGCUUGAGAGCAUCUUUGAAUGCAGAGUCGGCAGCCUUCGGUGCCGCGAUAGCGCCAACGUUCUCAACUAUGACACGCAAAACGCGUGAUCCGUUGAAUGGAGUUUAUCAUG and GGAUCUUCUCGAUCCAACAAAAAAGACAAAUCUGCCACAAAGCUUGAGAGCAUAUUCGGAUACAGAGGCGGCAGCCUACGGUGGCGCCAUAGCGCCAACGUUCUCAACUAUGCCACGCAAAACGCGUGCUCCGUUGAAUGGAGUUUAUCUUG cannot be ordered by “polymerase ribozyme fitness (log ratio)” value: no more than -4.2 for the first, no more than -4.2 for the second.

Compared with GGAUCUUCUCGAUCCAACAAAAAAGACAAAUCUGCCACAAAGCUUAAGAGCAUCUUCGAAUGCAGAGGCGGCAGCCUUCGGUGGCGCGAUAGAGCCAACGUUCUCAACUAUGACACGCAAAACGCGUGCUCCGUUGAAUGGAGUUUAUCAUG, GGAUCUUCUCGAUCCAACAAAAAAGACAAAUCUGCCACACAGCUUGAGAGCAUCUUCGGAUGCAGAGGCGGCAGCCUUCGGUGGCGCGAUAGAGUCAACGUUCUCAACUAUGACAAGCAAUACGCGUGCUCCGUUGAAUGGAGUUUAUCAUG is higher in “polymerase ribozyme fitness (log ratio)” value: -3.01 for the first, -1.18 for the second.

Compared with GGAUCUUCUCGAUCCAACAAAAAAGACAAAUCUGCCACAAAGCUUGAGAGCAUCUUCGGAUGCAGAGGCGGCAGACUUCGGUGGCGCGAUAGCGCGAACGUUCUCAACUAUGACACGCAAAACGCGUGCUCCGUUGAAUGGAGUUUAUCAUG, GGAUCUUCUCGAUCCAAUAAAAAAGACAAAUCUGCCACAAAGCUUGAGAGCAUCUUCGGAUGCAGAGGCGGCAGCCUUCGGUGGGGCGAUAGCGCCAACGUUCUCAACUAUGACACGUAAAACGCGUGCUCCGUUUAAUGGAGUUUAUCAUG is higher in “polymerase ribozyme fitness (log ratio)” value: no more than -4.2 for the first, -3.19 for the second.

First: GGAUCUUCUCGAUCCAACAACAAAGACAAAUCUGCCACAAAGCUUGAGAGCAUCUCCGGAUGCAGAGGCGGCAGCCUUCGGUAGCGCGAUAGCGCCAACGUUCUCAACUAUGACACGCAAAACGCGUGCUCCGUUGAAUGGAGUUUAUCAUG
Second: GGAUCUUCUCGAUCCAACAAAAAAGACAAAUCUGCCACAAAGCUUGAGGGCAUCUUCGGAUGCAGAGGCGGCAGCCUUCGGUGGUGCGAUAGCGCCAACGUUCUCAACGAUGACACGCAAAACGCGUGCUCCGUUGAAUGGAGUUUAUCAUG
The “polymerase ribozyme fitness (log ratio)” value of the first is higher: -0.11 for the first, -0.987 for the second.

Going from GGAUCUUCUCGAUCCAACAAACAAGACAAAUCUGCCACAAAGCUUGAGAGCAUCUUCGGAUGCAGAGGCGGCAGCCUUCGGUGGUGCGAUAGCGCCAACGUUCUCAACUAUGACACGCAAAACGCGCGCUCCGUUGAAUGGAGUUUAUCAUG to GGAUCUUCUCGAUCCAACAAAAAAGCCAAAUCUGCUACAAAGCUUGAGAGCAUCUUCGGAUGCAGAGGCGGCAGCCUUCGGUGACGCGAUAGCGCCAACGUUCUCAACUAUGACACGCAAAACGCGUGCUCCGUUGAAUGGAGUUUUUCAUG, the “polymerase ribozyme fitness (log ratio)” value falls from -2 to -3.47.

Going from GGAUCUUCUCGAUCCAACAAAAAAGACAAAUCUGCGACAAAGCUUGAGAGCAUCUUCGGAUGCAGAGGCGGCAGCCUUCGGUGGCGCGAUAGCGCCAACGUUCUCAACUAUGACACGCAAAACGCGUGCUCCGUUGAAUGGAGUUUAUCAUG to GGAUCUUCUCGAUCCAACAAACAAGACAAAUCUGCAACAAAGCUUGAGAGCAUCUUCGGAUGCAGAGGCGGCAGCCUUCGGUGGCGCGAUAGCGCCAACGUUCUCGACUAUGACACGCAAAACGCGUGCUCCGUUGAAUGGAAUUUAUCAUG, the “polymerase ribozyme fitness (log ratio)” value falls from -3.28 to no more than -4.2.

Compared with GGAUCUUCUCGAUCCAACAUAAAAGACAAAUCUGCCACAAUGCUUGAGAGCAUCUUGGGAUGCAGAGGCGGCAGCCUUCGGUGGCGCGAUAGCGCCAGCGUUCUCAACUAUGACACGCAAAACGCGUGCUCCGUUGAAUGGAGUUUAUCAUG, GGAUCUUCUCGAUCCAACAAAGAAGACAAAUCUGCCACAAAGCUUGCGAGCAUCAUCGGAUGCAGAGGCGGCAGCCUUCGGUGGCGCCAUAGCGCCAACGUUCUCAACUAUGACACGCAAAACGCGUGCUCCGUUGAACGGAGUUUAUCAUG is lower in “polymerase ribozyme fitness (log ratio)” value: -1.74 for the first, no more than -4.2 for the second.
